Source: patent US20260078341A1 (published 2026)
Like-named read-outs stand apart in the source and are kept apart here.

Key:
[1] = molecular target: T1, EGFR on cells (tumor lines, primary cell lines, K562 cells electroporated with EGFR mRNA, A431) (UniProt P00533 25-1210); test: not stated; affinity of the scFv
[2] = molecular target: T1, EGFR on cells (tumor lines, primary …); test: not stated; affinity of the scFv; remark: listed apart in the source

Kd [1] | Kd [2] | Binder
15.4 nM | 15.4 nM | P2-4BBZ CAR (other) DYKDDDDKEVQLVQSGAEVKKPGSSVKVSCKASGGTFSSYAISWVRQAPGQGLEWMGGIIPIFGTANYAQKFQGRVTITADESTSTAYMELSSLRSEDTAVYYCAREEGPYCSSTSCYAAFDIWGQGTLVTVSSGGGGSGGGGSGGGGSQSVLTQDPAASVALGQTVKITCQGDSLRSYFASWYQQKPGQAPTLVMYARNDRPAGVPDRFSGSKSGTSASLAISGLQSEDEADYYCAAWDDSLNGYLFGAGTKLTVLTTTPAPRPPTPAPTIASQPLSLRPEACRPAAGGAVHTRGLDFACDIYIWAPLAGTCGVLLLSLVITLYCKRGRKKLLYIFKQPFMRPVQTTQEEDGCSCRFPEEEEGGCELRVKFSRSADAPAYKQGQNQLYNELNLGRREEYDVLDKRRGRDPEMGGKPRRKNPQEGLYNELQKDKMAEAYSEIGMKGERRRGKGHDGLYQGLSTATKDTYDALHMQALPPR
264 nM | 264 nM | C10-BBZ CAR (other) DYKDDDDKEVQLVQSGAEVKKPGSSVKVSCKASGGTFSSYAISWVRQAPGQGLEWMGGIIPIFGTANYAQKFQGRVTITADESTSTAYMELSSLRSEDTAVYYCAREEGPYCSSTSCYGAFDIWGQGTLVTVSSGGGGSGGGGSGGGGSQSVLTQDPAVSVALGQTVKITCQGDSLRSYFASWYQQKPGQAPTLVMYARNDRPAGVPDRFSGSKSGTSASLAISGLQSEDEADYYCAAWDDSLNGYLFGAGTKLTVLTTTPAPRPPTPAPTIASQPLSLRPEACRPAAGGAVHTRGLDFACDIYIWAPLAGTCGVLLLSLVITLYCKRGRKKLLYIFKQPFMRPVQTTQEEDGCSCRFPEEEEGGCELRVKFSRSADAPAYKQGQNQLYNELNLGRREEYDVLDKRRGRDPEMGGKPRRKNPQEGLYNELQKDKMAEAYSEIGMKGERRRGKGHDGLYQGLSTATKDTYDALHMQALPPR
88.2 nM | 88.2 nM | P3-5BBZ CAR (other) DYKDDDDKEVQLVQSGAEVKKPGSSVKVSCKASGGTFSSYAISWVRQAPGQGLEWVGGIIPIFGTANYAQKFQGRVKITADESASTAYMELSSLRSEDTAVYYCAREEGPYCSSTSCYGAFDIWGQGTLVTVSSGGGGSGGGGSGGGGSQSVLTQDPAVSVALGQTVKITCQGDSLRSYLASWYQQKPGQAPTLVTYARNDRPAGVPDRFSGSKSGTSASLAISGLQSEDEADYYCAAWDDSLNGYLFGAGTKLTVLTTTPAPRPPTPAPTIASQPLSLRPEACRPAAGGAVHTRGLDFACDIYIWAPLAGTCGVLLLSLVITLYCKRGRKKLLYIFKQPFMRPVQTTQEEDGCSCRFPEEEEGGCELRVKFSRSADAPAYKQGQNQLYNELNLGRREEYDVLDKRRGRDPEMGGKPRRKNPQEGLYNELQKDKMAEAYSEIGMKGERRRGKGHDGLYQGLSTATKDTYDALHMQALPPR
